{"source": "patent US9872921B2", "about": "“DE-N-acetyl sialic acid antigens, antibodies thereto, and methods of use in cancer therapy” (priority 2004, dated 2018)", "key": {"[1]": {"tested_on": "SK-MEL 28 cells", "assay": "Cell cycle analysis by propidium iodide staining and flow cytometry", "assay_type": "cell-based, human", "details": "100 nM, 48 h", "experimental": "To further assess the affect of SEAM 3 mAb on cell growth, the stage of the cell cycle after treatment with SEAM 3 was determined. In this experiment, the cells were stained with the fluorescent DNA binding dye propidium iodide to characterize cell populations in various stages of the cell cycle and the effects of adding control antibodies, nocodazole (a drug that arrest the cells in mitosis) and SEAM 3.\nApproximately 10^5 SK-MEL 28 cells were plated on a 96-well tissue culture plate and allowed to adhere. After 24 h the medium was replaced with one that had either antibody or drug and incubated for a further 48 h. Cells were spun (to collect any cells that may have detached), and fixed in 70% ice-cold methanol (added drop wise) for at least 30 minutes at 4° C. The cells were washed twice with PBS, and to ensure that only DNA was stained, the fixed cells were treated with ribonuclease I (100 μg/ml, source) for 30 minutes at 37° C. Propidium iodide (50 μg/ml) was added and samples were analyzed using a Guava EasyCyte flow cytometer."}, "[2]": {"tested_on": "SEAM 3", "assay": "Inhibition ELISA of SEAM 3 binding to plate-coated N-Pr NmB PS-dodecylamine", "parameters": "species or system murine", "details": "dilution required to decrease absorbance at 405 nm by 50%", "experimental": "The ability of colominic acid and N-Pr NmB PS to inhibit binding of SEAM 3 to in an ELISA was compared to sialidase A-treated colominic acid and N-Pr NmB PS prepared as described above. The wells of microtiter plates (Immulon 2; Dynatech Laboratories, Inc.) were coated with N-Pr NmB PS-dodecylamine (prepared as described in Example 1) in phosphate buffered saline (PBS; pH 7.4). The plates were incubated overnight at 4° C. After washing three times with PBS, the wells were filled with 200 μl of blocking buffer (PBS containing 1% bovine serum albumin [BSA, Sigma] and 0.1% sodium azide; [pH 7.4]) and then incubated for 30-60 min at room temperature to block nonspecific binding sites. The plates were washed three times with PBS buffer. Inhibitors were serially diluted in blocking buffer on the plate in total final volume of 50 μl. SEAM 3 diluted in blocking buffer to a concentration that produced an OD405 nm of 0.5 when developed with substrate was added to the wells in a volume of 50 μl. The plates were covered and incubated overnight at 4° C. […] The absorbance at 405 nm after 30 minutes incubation at ambient temperature was measured using a BioRad Model 550 microtiter plate reader. The relative activity of each sample was compared by determining the dilution required to decrease the absorbance at 405 nm by 50% of the absorbance observed in wells containing SEAM 3 but no inhibitor."}, "[3]": {"tested_on": "NmB strain M7", "assay": "Fluorescence microscopy of SEAM 12 binding to capsule PS on NmB strain M7 grown with N-acyl mannosamine supplements", "parameters": "species or system Neisseria meningitidis", "description": "The trihaloacetylated mannosamine was incorporated into NmB PS by inoculating colonies of NmB strain M7 grown overnight at 37 degrees C. in 5% carbon dioxide on a freshly streaked chocolate agar plate to an OD620 nm of 0.1 in Muller-Hinton broth supplemented with 5 millimolar N-acyl mannosamine For example, N-acetyl, -trichloroacetyl, -trifluoroacetyl mannosamine. Stain M7 contains a transposon the interrupts the gene encoding N-acetyl-D-glucosamine-6-phosphate 2 epimerase (Swartley et al. 1994, J. Bact. 176:1530; Swartley et al. 1996, J. Bact. 178:4052). As a result, the bacteria cannot synthesize capsule PS unless the growth media was supplemented with N-acetyl mannosamine Therefore, the N-acyl content of the capsule PS synthesized in this system can be determined by the N-acyl or mixture of N-acyl mannosamine provided in the growth media. The bacteria were grown at 37 degrees C. […]).\nThere is no binding of SEAM 12 to M7 without N-acyl mannosamine or with N-trichloroacetyl mannosamine supplement (FIG. 37, panels B and C). […] However, SEAM 12 does bind to the capsule PS containing N-trifluoroacetyl groups (FIG. 37, panel D, shaded gray in the figure) since the trifluoromethyl group is nearly the same size as the methyl group of the N-acetyl derivative."}, "[4]": {"tested_on": "polysialic acid antigens expressed by the human neuronal cell line CHP-134", "details": "cited from earlier work"}}}
{"molecule": "COC(=O)Nc1nc2cc(C(=O)c3cccs3)ccc2[nH]1", "note": "[nocodazole, reference compound]", "values": [{"measurement": "cells arrested in G2/M phase", "setting": "[1]", "result": "approximately 50%"}]}
{"molecule": "poly alpha (2→8) N-acetyl neuraminic acid [colominic acid]", "values": [{"measurement": "activity for binding to SEAM 3, fold less than N-Pr NmB PS", "setting": "[2]", "result": "approximately 200 fold"}]}
{"molecule": "SEAM 12: anti-N-Pr NmB PS murine mAb (IgG2a) (antibody, V domains shown, mouse) VH: QVKLEQSGGGLVRPGNSLKLSCVTSGFTFINYRMHWLRQPPGKRLEWIAVITDNSDNYVVNYAESVKGRFAISRDDSKSSVYLEMNRLREEDTATYFCSRSRRSFFDYWGQGTTLTVS VL: DIVMTQTTVIMSASPGEKVTMTCSASSSVTYMHWYQQKSRTSPKLWIYDTSKLASGVPGRFSGSGSGNSYALTISSMEPEDVATYYCFQGSGYPLTFGAGTKLGLKRA", "values": [{"measurement": "SEAM 12 binding to capsule PS", "setting": "[3]; capsule PS containing N-trifluoroacetyl groups", "result": "does bind"}, {"measurement": "SEAM 12 binding to M7", "setting": "[3]; growth media supplemented with N-acetyl mannosamine", "result": "binding is indicated by the presence of red fluorescence"}, {"measurement": "SEAM 12 binding to M7", "setting": "[3]; with N-trichloroacetyl mannosamine supplement", "result": "no binding"}, {"measurement": "SEAM 12 binding to M7", "setting": "[3]; without N-acyl mannosamine", "result": "no binding"}]}
{"molecule": "SEAM 35: anti-N-Pr NmB PS murine mAb (IgG2a) (antibody, V domains shown, mouse) VH: EVKLEESGGGLVQPGGSLSLSCAASGFTFTDYYLSWVRQPPGKALEWLGFIRNTANGYTTEYSASVKGRFTIARDNSQSILTLQMNALRAEDSATYYCARWSRRAMDYWGQGTSVTVS VL: DIVMTQSPISMSMSLGERVTLSCKASENVGTYVSWYQQKPEQSPKLLISGASNRYTGVPDRFTGSGSATDFTLTISSVQAEDLADYHCGQSYNYPYTFGGGTKLEIKRA", "values": [{"measurement": "cross-reactivity with polysialic acid antigens expressed by CHP-134", "setting": "[4]", "result": "greater cross-reactivity"}]}
